According to paper PMC4313098, “Mesencephalic Astrocyte-Derived Neurotrophic Factor Is Involved in Inflammation by Negatively Regulating the NF-κB Pathway” (Scientific Reports, 2015):

Target: T1, p65-N2-His (amino acids 1-190) (UniProt Q04206 1-190)
T1 construct: NF-κB p65, N-terminal 190 residues, subcloned into pET28a; also called p65-N2-6 × His; 6 × His-tagged p65-N2 fragment; source: E. coli, purified
Test: pull-down; in vitro: purified GST-fused MANF (or truncate, or GST) pre-bound to glutathione-agarose; purified p65-N2-6xHis loaded in 50 mM Tris-HCl pH 7.5, 100 mM NaCl, 0.1% Triton X-100, 1 hr at 4°C; eluted with 500 mM NaCl; blot with anti-His
Details: both partners purified

T1 sequence (Q04206 1-190): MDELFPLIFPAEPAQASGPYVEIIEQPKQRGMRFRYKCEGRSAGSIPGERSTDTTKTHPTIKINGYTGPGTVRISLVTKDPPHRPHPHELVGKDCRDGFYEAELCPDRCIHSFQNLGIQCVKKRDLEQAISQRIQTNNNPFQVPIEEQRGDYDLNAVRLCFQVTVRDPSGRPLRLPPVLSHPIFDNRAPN

- binding result: binds
B1: MANF-D3-GST (C-terminal SAP-like domain, amino acids 96-182) (domain or fragment, human, UniProt P55145 96-182, looked up)
chain: LAHHIPVEKICEKLKKKDSQICELKYDKQIDLSTVDLKKLRVKELKKILDDWGETCKGCAEKSDYIRKINELMPKYAPKAASARTDL
